The text below walks through data of patent US20040209257.

The data set concerns T1, AcuI restriction endonuclease (recombinant, clone #288) V1M (Acinetobacter calcoaceticus SRW4).
T1 sequence: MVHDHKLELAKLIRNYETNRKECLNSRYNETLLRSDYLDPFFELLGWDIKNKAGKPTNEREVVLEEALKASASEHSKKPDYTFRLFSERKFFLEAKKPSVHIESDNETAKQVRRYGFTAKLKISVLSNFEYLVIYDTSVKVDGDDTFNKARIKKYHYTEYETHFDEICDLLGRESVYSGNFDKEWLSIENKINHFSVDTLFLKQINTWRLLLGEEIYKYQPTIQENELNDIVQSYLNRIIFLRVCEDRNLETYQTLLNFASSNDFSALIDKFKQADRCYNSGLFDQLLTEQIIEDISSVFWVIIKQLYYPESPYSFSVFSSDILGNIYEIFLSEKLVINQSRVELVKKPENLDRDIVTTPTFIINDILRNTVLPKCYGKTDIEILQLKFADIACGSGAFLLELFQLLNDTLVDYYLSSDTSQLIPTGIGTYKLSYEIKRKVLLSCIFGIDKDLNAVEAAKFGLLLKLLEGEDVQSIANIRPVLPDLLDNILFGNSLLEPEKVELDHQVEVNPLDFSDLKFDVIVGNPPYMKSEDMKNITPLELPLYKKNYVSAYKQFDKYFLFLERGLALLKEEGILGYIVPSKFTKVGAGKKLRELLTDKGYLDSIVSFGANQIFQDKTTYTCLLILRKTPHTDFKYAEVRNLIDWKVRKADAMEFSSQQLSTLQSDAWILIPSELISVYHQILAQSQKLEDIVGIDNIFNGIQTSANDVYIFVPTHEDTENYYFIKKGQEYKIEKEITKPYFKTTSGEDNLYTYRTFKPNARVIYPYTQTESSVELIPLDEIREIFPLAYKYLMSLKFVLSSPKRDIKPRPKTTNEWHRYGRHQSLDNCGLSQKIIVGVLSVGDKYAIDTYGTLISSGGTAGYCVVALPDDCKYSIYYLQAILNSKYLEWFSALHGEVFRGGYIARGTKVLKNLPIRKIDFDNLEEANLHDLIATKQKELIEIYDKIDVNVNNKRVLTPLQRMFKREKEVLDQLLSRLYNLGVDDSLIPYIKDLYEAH
Kind of data set: cleavage_in_vitro. The following applies: cell extract; lambda DNA substrate.

As for lambda DNA, the activity (units per gram wet cells) is 17400.
